# Assays:
# [1] = target: I-Bth0305I isolated catalytic domain containing a D196A mutation (Bacillus thuringiensis 0305ϕ8–36 bacteriophage); assay: SEC
# [2] = target: I-Bth0305I full-length enzyme containing a catalytically inactivating D222N mutation (Bacillus thuringiensis 0305ϕ8–36 bacteriophage); assay: SEC
Substance,stoichiometry N [1],stoichiometry N [2]
I-Bth0305I isolated catalytic domain containing a D196A mutation (domain or fragment),2,–
I-Bth0305I full-length enzyme containing a catalytically inactivating D222N mutation,–,2

# From paper PMC3239194
